Source: the DeepSol protein solubility set

Assay: soluble on expression in E. coli; label from the status in PepcDB or PDB records

| Sequence | soluble on expression in E. coli |
| --- | --- |
| MGSDKIHHHHHHMKNLLGYSEDYLKERKGYITAKEICNQPKLWRETYEIILSQREKLKSFLDNFAKKPNAKIVITGAGSSAFVGNSVVSYLNAKENIKIEAIATTDIVSHPFYYLKKDEPTLLISCARSGNSPESTAAVTLAEKIVDDISHLIITCNSEGKLALHAKRNYNSFLLLMPEESNDKGFAMTGSFSTMLLSCLLIFNLDKLESIGKQIESISMQGEKVLVNNVELMKKIVGEKFKRTVYLGAANAFGLAKESALKVLELTAGKIATLYDTPLGFRHGPKSIIDDETLIVIFFSNDTYAREYEYDLLKEVYSQNGNHKVLAISEYEDKLIEDNSDYFIAINKEEQEYEDDSFLSLDYLLNAQMYAFINSMELGIGPDNPCPTGEVNRVVKGVIIHDYR | not soluble |
| MSLIIIISGPPGSGKTSVAIKLANELSYKFISAGKIFRDIAQSMGLDIINLNRVAESNFDIDKMVDKKIHEYVLRERNLIVESHIAGWIFREYTDVAIYLWAPLKIRANRIAIRDKISYVEAVSQIIRREYMHYKRFNKFYGIDINDLSVFDLVINTSNIDINNIVKLILDYLSSVSHNEGHHHHHH | soluble |
| LVLEGGGMRGLYTAGVLDAFLEAGIKVDGVVSVSAGALFGVNYLSNQPKRALRYNKRFMGDRRYMSFWSWLTTGNFVNKEFSYYKVPMELDVFDQDAFAESGVPFYVVATDIKTGKPDYIKIDHVFEQMEALRASSALPLVSEIVEYKGKRYMDGGLADSLPI | not soluble |
| GPGSMLANYDYESDLRGRTDELGRAQHVDAYDKHPTFLESPYAGQEDLLRDAPQSYMDGPPPGYGGHDAYEHVDMNGGGYDLPLQPQAQTQAVDTRRLSKDRLARGGLNIFSWNTDAPTLNHPREVRERDCAELQRLRPVDSAAQRDKEVREKFEGNTQSRFLCFSESDSPGKRRGVRVFNPNNKNGNLNSGTGHENPIQNRFNEEPQPFKIRQQQPRPLPQQNLPPAGRATHSNRQESGGIPGFAGMGEGRQHNARRGRGSYRG | not soluble |
| FCKELPRPELPYSEMSAIGSLIQALPASCALHLANSSAVRYAQLYSLPDTVEVCCNRGTSGIEGSLSTAIGYAAASKKLNFVVIGDLSFFYDMNALWNNHFGSNLRILLLNNGGGEIFHTLPGLEMSGTSHRFVTAVHKTSAKGWAEERGFLYQEVQDEKQLDEAMKTFTQPELLTQPVIMEVFTNKNKDARILKDYYHQLKN | not soluble |
| MGSSHHHHHHGGTGENLYFQGGSGRRLPLFCRRPSRCCGATASGSGSSSAAVLAASAAPSVLVLAARGIATSGRVTNEDRRWWLVHLECAPDVTPGTFVSWLDCCGTHTTKKLIERNIWTIEQVAELDSDRVDELKYKEGCLKMDVVWEHARTIITPLKQREVSGGVESQLQSRILELRKKRELERQRELLARERATVSDKREETLRRLRESVAAKKAALRKKLDEQHGEATPAASESASTEAHRGTAEAAVEDEAVGNIVDRMSGGNPPRA | not soluble |
| MSLKKAKLIFKDNTPFSLDFDDFYFNSKDGLNESKFVYTHSFEWKNQENFIIAESGFGIGLNFFLTLKRLLETTPSKRPKKLFYISVEAFYIEKEQLREIYQKLEFYEEFKELLEQFLKFYPKAKEGIYRFYFEDCFLDLVFEDIAVLKELDFKADVWYLDGFSPNKNLQMFDENLIFEVARLSKKNTQICTFSSASFLQKNLKKYGFRVEKTKGFRKREMIKAYLENELEFKDKEAYFSRTEGHHHHHH | soluble |
| TNCVTISQREILKGVEGVTWFEVLLEKTSCITIAAQNRPSIDLWLDDVKQSSVMASKEFCMKVEVSETQIAARCPTQGDATLPMEGKDDYVCKKTFSDRGWGNGCALFGKGSIVGCAKVACNTANVMKTHIYEQQAVQYVVGIEVHRGEVIKANVSDKVIKASFSAEAEKHTVEIPDYGSLDFTCRVVASADLSNIRLLEVDGHYFNVHEDWLDDLPLPWRINAGPWRGMDKLVNFREPYAVKMVIMGYGDQRPAVLGALDKAEEIKKVGDNYHLNGGHVSCKVSVAKLKLKGMTYVVCGGKFAWAKKPIATNHDTVAMEVTYTGNDTPCRVTVKNVKENSDDQGTLITTNPFVESNGATIFLELEPVYGLSTIKVGDITYQWNQQGSVIGKALEHHHHHH | not soluble |
| MGSDKIHHHHHHMTPDSSPSSVDDPLFESGHRIFANKDLLKIGHVPEADRIVGRDEEISKLAKRLNGAVHGYSPENVMIYGKTGTGKSLVSKHVCQRAQNAAQDGVEIGTAYIDCAEDNTETQAISSLAAKLNDESSTGISVPHTGLSTSKYYKLLWKTLDAQFDSVIIILDEIDLMNDDSVLMKLSRAEEAGKIDCSVGVIAISNKIQYVDNVNERVKSSFQHKELFFKPYDANQLREIMFNREDAFQDGVLSEDVIPLSAAFAAQEHGDARKAIDILRHAGEVAYEAGAELVTEEHVRQAQQHAEKDRFRELVNGAPTQAKAALLALTELSVNSNDDAFLTSRVYDQYEHICNHLDMDILSVRRFRDILKEQAFLGVVEIEKINKGSAGGIHLQNRLIEDSQVVRETILEDSRMQDWTRE | not soluble |
| MRIVEVYSHLNGLEYIQVHLPHIWEEIQEIIVSIDAEACRTKESKEKTKQGQILYSPVALNEAFKEKLEAKGWKESRTNYYVTADPKLIRETLSLEPEEQKKVIEAAGKEALKSYNQTDFVKDRVAIEVQFGKYSFVAYDLFVKHMAFYVSDKIDVGVEILPMKELSKEMSSGISYYEGELYNVIRQGRGVPAVPLVLIGIAP | soluble |
| MTRHGKNSTAASVYTYHERRRDAKASGYGTLHARLGADSIKEFHCCSLTLQPCRNPVISPTGYIFDREAILENILAQKKAYAKKLKEYEKQVAEESAAAKIAEGQAETFTKRTQFSAIESTPSRTGAVATPRPEVGSLKRQGGVMSTEIAAKVKAHGEEGVMSNMKGDKSTSLPSFWIPELNPTAVATKLEKPSSKVLCPVSGKPIKLKELLEVKFTPMPGTETAAHRKFLCPVTRDELTNTTRCAYLKKSKSVVKYDVVEKLIKGDGIDPINGEPMSEDDIIELQRGGTGYSATNETKAKLIRPQLELQ | soluble |
| MKVGVVGLQGDVSEHIEATKMAIEKLELPGEVIWLKRPEQLKGVDAVIIPGGESTTISRLMQRTGLFEPIKKMVEDGLPVMGTCAGLIMLAKEVLGATPEQKFLEVLDVKVNRNAYGRQVDSFEAPVKLAFDDEPFIGVFIRAPRIVELLSEKVKPLAWLEDRVVGVEQENIIGLEFHPELTNDTRIHEYFLRKVI | soluble |
| MSLTETCDRFALIGAGPMGLAMAKVMLEQGIAFDGFELHSDVGGLWDIDGPRSTMYESAHLISSKRMTEFTDFPMEEAVAEYPSHRELKRYFHAFAARYGLRDHYRFGAEVLRCEPLGEPGAGWRVIWRDAEGEHTETYAGVMIANGTLSEPNMPTFQGRFDGELIHSSAYRHPSQFDGKRVLIVGAGNSGCDIAVDAIHHGALCDLSMRRGYYFVPKYVFGKPADTLGGMIKLPMWLKRRVDGMILKWFVGDPQKYGFPKPDYQLYESHPVVNSLVLYHAGHGDLRIRPDIDRFDGRRVIFADGSSEEYDMILAATGYKLFYPFIDRDLLNWQGDAPHLYLNALHPERDDLFVLGMIEASGLGWQGRHEQAEMVARYITGLRRGGAAAAELKAAKSAGFERATGGMNYLKLARMAYYVDKATYRGAVTGWIDRLKRAQSEGHHHHHH | soluble |
| MGSDKIHHHHHHMTYREYKEPATRAGGIIELPHRTDANRFLASLGVAERATLASHLQLVHVKSGQVLCEPGMALEHVYLPVTTVISIQYASSDGMTLEIAEIGNEGIVSPQLVGTDGASPCRVITCRDGFSYRLGARVLSNLLEESAQTRQAIFRCTHLLMAQAKQISFCSRHHVLKNQLCRWFLLAYDRSRSVEIQVTHSMLAQMLGVRRETVTDAAGDIQKMGLIRQYRSSIILVDLPGLDAQSCGCHAIIREEMKKIQAAPTSASGTLTELRS | not soluble |
| MSKSICKSSMRAAVVRRFGAPDVIEAVESDMPRLEKNQVLVRNYAAGVNPVDTYIRAGQYGKLPNLPYVPGKDGAGFVELVGESVKNVKVGDRVWYGSEADSTAEYVAVNRPFELPEGVSFEEGASLGVPYLTAYRALFHLAGAKTGDVILVHGASGGVGSALMQLAAWRNIEAVGTAGSADGIRFVKSLGARNVYNHSDKQYVSKMKNDYPGGFNHIFEMAAHTNLNTDLGLLAPRGRVAVIGNRAETTINARQLMVTEGAVYGVALGMSSEAELLDFGINIVSFLKETEFRPLINKLYRLEQLGLAHEEIMNNKGAKGNLVVQIEH | not soluble |
| MGSDKIHHHHHHMEMKMQQIDILRKLSEVWRLFGDMPDDTTLSVDLAALYLGISVKTLARYRQSGGGPSYIQYQSEGSQARNQRVNYLLKDLRSWRDNHKVSNTMHAAQVRGLAFDSLLDFCKPQPFWQVTDKSSSRDKSKILSHALTIPDDDFKKKLLEPNADIVWISIEEALFNEWQTADERQKWNDIFKEFLNEIISASNAAQEKHILNAILK | not soluble |
| AHHHHHHGSVRDMEFGNLKPGVENSVCLSAEDLLNTVLSVINSTKARGAYVKIFGKDMEDNYLLEMLVDGSRILAIECSYVQAKKKVVGEEAIKKLAELVELPLIVSVYPLDDNQFRLILANNLEVYSQTPAVPLSSVFKKGATRTIESAIEEAKEEKEEEIQKIMKKTEEIVTEEKKKKEEKKRSSNRNTKRKQN | soluble |
| AATTGYDAVDDLLHYHERGNGIQINGKDSFSNEQAGLFITRENQTWNGYKVFGQPVKLTFSFPDYKFSSTNVAGDTGLSKFSAEQQQQAKLSLQSWADVANITFTEVAAGQKANITFGNYSQDRPGHYDYGTQAYAFLPNTIWQGQDLGGQTWYNVNQSNVKHPATEDYGRQTFTHEIGHALGLSHPGDYNAGEGNPTYNDVTYAEDTRQFSLMSYWSETNTGGDNGGHYAAAPLLDDIAAIQHLYGANLSTRTGDTVYGFNSNTGRDFLSTTSNSQKVIFAAWDAGGNDTFDFSGYTANQRINLNEKSFSDVGGLKGNVSIAAGVTIENAIGGSGNDVIVGNAANNVLKGGAGNDVLFGGGGADELWGGAGKDIFVFSAASDSAPGASDWIRDFQKGIDKIDLSFFNKEANSSDFIHFVDHFSGTAGEALLSYNASSNVTDLSVNIGGHQAPDFLVKIVGQVDVATDFIV | soluble |
| MTEPLTETPELSAKYAWFFDLDGTLAEIKPHPDQVVVPDNILQGLQLLATASDGALALISGRSMVELDALAKPYRFPLAGVHGAERRDINGKTHIVHLPDAIARDISVQLHTVIAQYPGAELEAKGMAFALHYRQAPQHEDALMTLAQRITQIWPQMALQQGKCVVEIKPRGTSKGEAIAAFMQEAPFIGRTPVFLGDDLTDESGFAVVNRLGGMSVKIGTGATQASWRLAGVPDVWSWLEMITTALQQKRENNRSDDYESFSRSILEHHHHHH | not soluble |
| MQVIKTNETFDSLDKSKLERMLDIKEAHREGHLTLEEAKERMKKEVGSISPEEFAAAEQLFKERDQDECQNEDVRTMLQLFEGLINPIRPDLPFGHPIDAYLRENDKAKELLDQADALLERTFIPNPWIELMETLMGYKLHFARKQNQLYSTLEQKGFDRPSTTMWTYDDHIRDEMNKAMSLLREKDYDSFPAAYKEMAIVLRDLMEKEELILYPTSLKLISDKEFEEMKHGDREIGFFLIDMPELDAPAKQSKEAHGQSFMAELGALLAKHGMGTGGQDDKAILDVAEGKLTLEQINLLFRHLPVDISFVDENELVCFYTDTKHRVFPRSKGVIGREVRNCHPPKSVHIVEEIIDKFRRGEQDRAEFWINKPGVFIYIVYVAIRDADGRFRGVMEMMQDCTRIRSLEGSRTLLTWDEEQSPAQGSKESESDTAGEDGIRPDTKLKSLLQRYPQLMDDLPTISSKFTLLRSPMAKVILPVATIKMMSERADIPSDMLIGKLESLIASYNKPDRSEEK | not soluble |
| VSGREPSSRIIRVSVKTPQDCHEFFLAENSNVRRFKKQISKYLHCNADRLVLIFTGKILRDQDILSQRGILDGSTVHVVVRSH | soluble |
| SNAEELQALVDNIPAAIYHLDVSGQATIRFRPPAFLKTLVSEHAGTTRLNTLSMIHHDDRHMLSNAYSKLREAKHSLTLVYRIVTPEGKLHWIEDHMRSSFSDDGLFSGIDGILCEVT | soluble |
